This note sets out measurements from patent US20240391954A1, “MC4R AGONIST PEPTIDES” (The Regents of the University of Michigan, priority 2021, published 2024).

Assay in all cases: cell-based or functional assay
The target in test [1] is human MC3R (human, UniProt P41968 1-323).
Test [2] deals with T1, human MC4R receptor (human, UniProt P32245 1-332).
The target of test [3] is T1, human MC4R receptor. This is another data set of the same source.

Positions of bridges follow the written chain, without caps; N, C: chain ends. Non-standard residues stand in square brackets, D forms with d. NMeW = CN[C@@H](Cc1c[nH]c2ccccc12)C(=O)O; 2Nal = N[C@@H](Cc1ccc2ccccc2c1)C(=O)O; d2Nal = N[C@H](Cc1ccc2ccccc2c1)C(=O)O; NMeH = CN[C@@H](Cc1c[nH]cn1)C(=O)O; Nle = CCCC[C@H](N)C(=O)O

T1 sequence (P32245 whole entry): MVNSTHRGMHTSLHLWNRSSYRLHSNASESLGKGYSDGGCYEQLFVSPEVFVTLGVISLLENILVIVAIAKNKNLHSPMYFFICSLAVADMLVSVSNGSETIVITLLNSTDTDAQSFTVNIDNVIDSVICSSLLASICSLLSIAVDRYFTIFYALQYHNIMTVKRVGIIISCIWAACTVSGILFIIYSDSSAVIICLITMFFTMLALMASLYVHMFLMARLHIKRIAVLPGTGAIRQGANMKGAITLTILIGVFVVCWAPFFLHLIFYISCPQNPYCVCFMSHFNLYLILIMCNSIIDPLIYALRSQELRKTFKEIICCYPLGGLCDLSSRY
Sequence of human MC3R (P41968 whole entry): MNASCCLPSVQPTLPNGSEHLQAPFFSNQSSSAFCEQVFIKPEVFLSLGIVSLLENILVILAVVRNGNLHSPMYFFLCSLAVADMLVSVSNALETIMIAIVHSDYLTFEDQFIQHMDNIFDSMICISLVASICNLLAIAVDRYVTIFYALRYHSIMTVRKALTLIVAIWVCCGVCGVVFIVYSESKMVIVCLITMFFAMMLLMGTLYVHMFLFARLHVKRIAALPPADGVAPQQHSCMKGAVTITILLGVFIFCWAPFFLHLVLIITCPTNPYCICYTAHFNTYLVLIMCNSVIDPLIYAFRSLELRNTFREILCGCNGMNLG

B1: CTX-2128 (peptide)
peptide: Ac-[Nle]CH[2Nal]R[dW]CRFG-NH2
modifications: disulfide 2-7
SMILES: CCCC[C@H](NC(C)=O)C(=O)N[C@H]1CSSC[C@@H](C(=O)N[C@@H](CCCNC(=N)N)C(=O)N[C@@H](Cc2ccccc2)C(=O)NCC(N)=O)NC(=O)[C@@H](Cc2c[nH]c3ccccc23)NC(=O)[C@H](CCCNC(=N)N)NC(=O)[C@H](Cc2ccc3ccccc3c2)NC(=O)[C@H](Cc2c[nH]cn2)NC1=O
As for B1, in test [1], the “% max activation” value was 99% and the “cAMP EC50” value stood at 39 nM. In test [2], the “% max activation” value was 87% and the “cAMP EC50” value stood at 7210 nM. The “MC4R selectivity vs MC3R” value in test [3] came to 0.01.

B2: CTX-1267 (peptide)
peptide: Ac-RCAR[dF]RWC-NH2
modifications: disulfide 2-8
SMILES: CC(=O)N[C@@H](CCCNC(=N)N)C(=O)N[C@H]1CSSC[C@@H](C(N)=O)NC(=O)[C@H](Cc2c[nH]c3ccccc23)NC(=O)[C@H](CCCNC(=N)N)NC(=O)[C@@H](Cc2ccccc2)NC(=O)[C@H](CCCNC(=N)N)NC(=O)[C@H](C)NC1=O
In the case of B2, in test [1], the “% max activation” value stood at 40% and the “cAMP EC50” value stood at 12 nM. For the same molecule, in test [2], the “% max activation” value was found to be 96% and the “cAMP EC50” value was 3 nM. In test [3], the “MC4R selectivity vs MC1R” value stood at 0.5 and the “MC4R selectivity vs MC3R” value was 4.07.

With Ac-RC[dA]R[dF]R[d2Nal]C-NH2 (disulfide 2-8) [CTX-1264], in test [1], the “% max activation” value was 44% and the “cAMP EC50” value is 3.7 nM. Further, in test [2], the “% max activation” value was 80% and the “cAMP EC50” value is 13 nM. In test [3], the “MC4R selectivity vs MC1R” value worked out at 0.14 and the “MC4R selectivity vs MC3R” value turned out to be 0.29.

B3: CTX-1263 (peptide)
peptide: Ac-RC[dA]R[dF]R[dW]C-NH2
modifications: disulfide 2-8
SMILES: CC(=O)N[C@@H](CCCNC(=N)N)C(=O)N[C@H]1CSSC[C@@H](C(N)=O)NC(=O)[C@@H](Cc2c[nH]c3ccccc23)NC(=O)[C@H](CCCNC(=N)N)NC(=O)[C@@H](Cc2ccccc2)NC(=O)[C@H](CCCNC(=N)N)NC(=O)[C@@H](C)NC1=O
Regarding B3, in test [1], the “% max activation” value stood at 69% and the “cAMP EC50” value is 11 nM. In test [2], the “% max activation” value turned out to be 93% and the “cAMP EC50” value turned out to be 6.5 nM. Further, in test [3], the “MC4R selectivity vs MC1R” value amounted to 1.73 and the “MC4R selectivity vs MC3R” value came to 1.62.

B4: CTX-1265 (peptide)
peptide: Ac-RC[dA]R[dF]R[dF]C-NH2
modifications: disulfide 2-8
SMILES: CC(=O)N[C@@H](CCCNC(=N)N)C(=O)N[C@H]1CSSC[C@@H](C(N)=O)NC(=O)[C@@H](Cc2ccccc2)NC(=O)[C@H](CCCNC(=N)N)NC(=O)[C@@H](Cc2ccccc2)NC(=O)[C@H](CCCNC(=N)N)NC(=O)[C@@H](C)NC1=O
Consider B4, for which the “cAMP EC50” value came out at 29.9 nM in test [1] and 703 nM in test [2]. Also, the “MC4R selectivity vs MC1R” value in test [3] was found to be 0.02.

B5: CTX-1203 (peptide)
peptide: {CH2CO}-[dA][NMeH][dF]R[NMeW]C-NH2
modifications: thioether N-6
SMILES: C[C@H]1NC(=O)CSC[C@@H](C(N)=O)NC(=O)[C@H](Cc2c[nH]c3ccccc23)N(C)C(=O)[C@H](CCCNC(=N)N)NC(=O)[C@@H](Cc2ccccc2)NC(=O)[C@H](Cc2c[nH]cn2)N(C)C1=O
B5: in test [1], the “% max activation” value amounted to 107% and the “cAMP EC50” value was determined as 2610 nM. Also, in test [2], the “% max activation” value came to 109% and the “cAMP EC50” value amounted to 16 nM. Moreover, in test [3], the “MC4R selectivity vs MC1R” value stood at 2.32 and the “MC4R selectivity vs MC3R” value stood at 161.
